Measurements reported in US20250011406A1.

Assays:
[1] = molecular target: PfCSPm (PfCSP_SAmut_C5S), stabilized mutant form of PfCSP (Plasmodium falciparum) (UniProt Q7K740); assay: ITC, antibody titrated into PfCSPm, pH 7.4, 25 C, two sets of sites; first (junctional) site
[2] = molecular target: PfCSPm (PfCSP_SAmut_C5S), stabilized mutant form of PfCSP (Plasmodium falciparum) (UniProt Q7K740); assay: ITC, antibody titrated into PfCSPm, pH 7.4, 25 C, two sets of sites; second site
[3] = molecular target: PfCSPm (PfCSP_SAmut_C5S), stabilized mutant form of PfCSP (Plasmodium falciparum) (UniProt Q7K740); assay: ITC, two-site model
[4] = molecular target: PfCSPm (PfCSP_SAmut_C5S), stabilized mutant form of PfCSP (Plasmodium falciparum) (UniProt Q7K740); assay: ITC, antibody titrated into PfCSPm; second site
[5] = molecular target: PfCSPm (PfCSP_SAmut_C5S), stabilized mutant form of PfCSP (Plasmodium falciparum) (UniProt Q7K740); assay: ITC, antibody titrated into PfCSPm; first site
[6] = molecular target: PfCSPm (PfCSP_SAmut_C5S), stabilized mutant form of PfCSP (Plasmodium falciparum) (UniProt Q7K740); assay: ITC, two-site model [lower table]
[7] = molecular target: PfCSPm (PfCSP_SAmut_C5S), stabilized mutant form of PfCSP (Plasmodium falciparum) (UniProt Q7K740); assay: ITC

Row | Substance | Kd [1] [nM] | Kd [2] [nM] | -TΔS1 [3] [kcal/mol] | -TΔS2 [3] [kcal/mol] | ΔG1 [3] [kcal/mol] | ΔG2 [3] [kcal/mol] | ΔH1 [3] [kcal/mol] | ΔH2 [3] [kcal/mol] | stoichiometry [4] | stoichiometry [5] | -TΔS1 [6] [kcal/mol] | -TΔS2 [6] [kcal/mol] | ΔG1 [6] [kcal/mol] | ΔG2 [6] [kcal/mol] | ΔH1 [6] [kcal/mol] | ΔH2 [6] [kcal/mol] | Kd [7] [nM] | change in ΔG [7] [kcal/mol] | fold affinity increase over mature CIS43 [7] [fold]
1 | mature CIS43 antibody (IgG) | 18 | 63 | 13.4 | 0.9 | -10.6 | -9.8 | -24 | -10.7 | 5.8 | 2.4 | – | – | – | – | – | – | – | – | –
2 | mature CIS43 with L98I in the heavy chain (antibody) | – | – | – | – | – | – | – | – | – | – | 8.8 | -0.9 | -10.8 | -10.2 | -19.6 | -9.3 | 11 | 0.2 | 1.6
